Data: patent publication US20250115669A1, “FGFR1/KLB Targeting Agonistic Antigen-Binding Proteins and Conjugates Thereof with GLP-1R Agonistic Peptides” (SANOFI, priority 2020, published 2025)
Positions count from the first letter of the chain named. Numbers in names are those of the source.

T1: human beta-Klotho (Homo sapiens, UniProt Q86Z14)
T1 sequence (Q86Z14 1-1044): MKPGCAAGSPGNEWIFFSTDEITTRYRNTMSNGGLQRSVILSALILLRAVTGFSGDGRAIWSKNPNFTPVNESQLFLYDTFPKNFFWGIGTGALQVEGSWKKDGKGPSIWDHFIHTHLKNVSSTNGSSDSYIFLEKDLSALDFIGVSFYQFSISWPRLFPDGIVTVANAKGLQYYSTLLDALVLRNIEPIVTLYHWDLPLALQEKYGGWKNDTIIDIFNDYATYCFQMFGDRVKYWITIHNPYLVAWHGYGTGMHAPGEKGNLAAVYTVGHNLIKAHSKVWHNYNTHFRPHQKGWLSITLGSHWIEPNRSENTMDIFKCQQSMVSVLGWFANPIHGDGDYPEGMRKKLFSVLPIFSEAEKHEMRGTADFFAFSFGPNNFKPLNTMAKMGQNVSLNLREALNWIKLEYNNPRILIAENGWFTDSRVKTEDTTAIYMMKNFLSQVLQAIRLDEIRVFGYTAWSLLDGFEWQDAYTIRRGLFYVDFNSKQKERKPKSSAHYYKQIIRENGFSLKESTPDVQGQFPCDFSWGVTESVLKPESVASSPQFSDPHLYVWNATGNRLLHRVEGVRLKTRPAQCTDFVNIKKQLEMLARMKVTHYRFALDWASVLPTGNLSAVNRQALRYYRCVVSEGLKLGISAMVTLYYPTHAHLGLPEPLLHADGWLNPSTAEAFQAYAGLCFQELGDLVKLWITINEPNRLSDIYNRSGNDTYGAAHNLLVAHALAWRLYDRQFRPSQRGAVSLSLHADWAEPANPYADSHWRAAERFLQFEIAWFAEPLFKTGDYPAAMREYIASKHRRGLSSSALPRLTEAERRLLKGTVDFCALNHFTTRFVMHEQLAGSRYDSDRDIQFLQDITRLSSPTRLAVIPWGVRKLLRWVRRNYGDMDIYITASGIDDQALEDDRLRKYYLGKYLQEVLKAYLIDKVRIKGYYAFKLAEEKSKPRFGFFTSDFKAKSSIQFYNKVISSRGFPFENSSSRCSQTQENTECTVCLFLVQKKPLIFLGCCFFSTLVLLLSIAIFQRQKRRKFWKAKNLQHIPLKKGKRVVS

B1: Ab0319: IgG4 PE; 16H7 VL (D49Y, D50E, D91T, N93E); 16H7 VH (M34V, I83T, D109E) (antibody)
VH: QVTLKESGPVLVKPTETLTLTCTVSGFSLNNARVGVSWIRQPPGKALEWLAHIFSNDEKSYSTSLKSRLTISKDTSKSQVVLTMTNMDPVDTATYYCARSVVTGGYYYEGMDVWGQGTTVTVSS
light: SYVLTQPPSVSVAPGQTARITCGGNNIGSESVHWYQQKPGQAPVLVVYYESDRPSGIPERFSGSNSGNTATLTISRVEAGDEADYYCQVWTGESDHVVFGGGTKLTVLGQPKANPTVTLFPPSSEELQANKATLVCLISDFYPGAVTVAWKADGSPVKAGVETTKPSKQSNNKYAASSYLSLTPEQWKSHRSYSCQVTHEGSTVEKTVAPTECS
B2: Ab0394: IgG4 PE; 16H7 VL (Y48del, D95S, W90F, S1C, S94C); 16H7 VH (M34V, H52W, I83T, D109E) (antibody)
VH: B1 VH with H52W
light: CYVLTQPPSVSVAPGQTARITCGGNNIGSESVHWYQQKPGQAPVLVVDDSDRPSGIPERFSGSNSGNTATLTISRVEAGDEADYYCQVFDGNCSHVVFGGGTKLTVLGQPKANPTVTLFPPSSEELQANKATLVCLISDFYPGAVTVAWKADGSPVKAGVETTKPSKQSNNKYAASSYLSLTPEQWKSHRSYSCQVTHEGSTVEKTVAPTECS
B3: Ab0378: IgG4 PE; 16H7 VL (Y48del, D95V, W90F); 16H7 VH (M34V, H52S, F54W, I83T, D109E) (antibody)
VH: B1 VH with H52S, F54W
light: B2 light with C1S, C93S, S94V
B4: Ab0393: IgG4 PE; 16H7 VL (Y48del, D95S, W90F, S94C, H96C); 16H7 VH (M34V, H52W, I83T, D109E) (antibody)
VH: B1 VH with H52W
light: B2 light with C1S, H95C
B5: Ab0381: IgG4 PE; 16H7 VL (Y48del, D95V, W90F, S94C, H96C); 16H7 VH (M34V, F54W, I83T, D109E) (antibody)
VH: B1 VH with F54W
light: B2 light with C1S, S94V, H95C
B6: Ab0376: IgG4 PE; 16H7 VL (Y48del, D95E, W90F, S94C, H96C); 16H7 VH (M34V, F54W, I83T, D109E) (antibody)
VH: B1 VH with F54W
light: B2 light with C1S, S94E, H95C
B7: Ab0390: IgG4 PE; 16H7 VL (Y48del, D95S, W90F, S94C, H96C); 16H7 VH (M34V, F54W, I83T, D109E) (antibody)
VH: B1 VH with F54W
light: B2 light with C1S, H95C
B8: Ab0389: IgG4 PE; 16H7 VL (Y48del, D95S, W90F, S1C, S94C); 16H7 VH (M34V, H52S, F54W, I83T, D109E) (antibody)
VH: B1 VH with H52S, F54W
light: B2 light
B9: Ab0374: IgG4 PE; 16H7 VL (Y48del, D95E, W90F); 16H7 VH (M34V, F54W, I83T, D109E) (antibody)
VH: B1 VH with F54W
light: B2 light with C1S, C93S, S94E
B10: Ab0320: IgG4 PE; 16H7 VL (N25S, D49Y, D50E, D91T, N93E); 16H7 VH (M34V, I83T, D109E) (antibody)
VH: B1 VH
light: B1 light with N25S
B11: Ab0383: IgG4 PE; 16H7 VL (Y48del, D95V, W90F); 16H7 VH (M34V, H52W, I83T, D109E) (antibody)
VH: B1 VH with H52W
light: B2 light with C1S, C93S, S94V
B12: Ab0392: IgG4 PE; 16H7 VL (Y48del, D95S, W90F); 16H7 VH (M34V, H52W, I83T, D109E) (antibody)
VH: B1 VH with H52W
light: B2 light with C1S, C93S
B13: Ab0382: IgG4 PE; 16H7 VL (Y48del, D95V, W90F, S94C, H96C); 16H7 VH (M34V, H52S, F54W, I83T, D109E) (antibody)
VH: B1 VH with H52S, F54W
light: B2 light with C1S, S94V, H95C
B14: Ab0379: IgG4 PE; 16H7 VL (Y48del, D95V, W90F, S1C, S94C); 16H7 VH (M34V, F54W, I83T, D109E) (antibody)
VH: B1 VH with F54W
light: B2 light with S94V
B15: Ab0395: IgG4 PE; 16H7 VL (Y48del, D95A, W90F); 16H7 VH (M34V, F54W, I83T, D109E) (antibody)
VH: B1 VH with F54W
light: B2 light with C1S, C93S, S94A
B16: Ab0380: IgG4 PE; 16H7 VL (Y48del, D95V, W90F, S1C, S94C); 16H7 VH (M34V, H52S, F54W, I83T, D109E) (antibody)
VH: B1 VH with H52S, F54W
light: B2 light with S94V
B17: Ab0372: IgG4 PE; 16H7 VL (Y48del, D95E, W90H, S1C, S94C); 16H7 VH (M34V, H52W, I83T, D109E) (antibody)
VH: B1 VH with H52W
light: B2 light with F89H, S94E
B18: Ab0373: IgG4 PE; 16H7 VL (Y48del, D95E, W90H, S94C, H96C); 16H7 VH (M34V, H52W, I83T, D109E) (antibody)
VH: B1 VH with H52W
light: B2 light with C1S, F89H, S94E, H95C
B19: Ab0391: IgG4 PE; 16H7 VL (Y48del, D95S, W90F, S94C, H96C); 16H7 VH (M34V, H52S, F54W, I83T, D109E) (antibody)
VH: B1 VH with H52S, F54W
light: B2 light with C1S, H95C
B20: Ab0377: IgG4 PE; 16H7 VL (Y48del, D95V, W90F); 16H7 VH (M34V, F54W, I83T, D109E) (antibody)
VH: B1 VH with F54W
light: B2 light with C1S, C93S, S94V
B21: Ab0371: IgG4 PE; 16H7 VL (Y48del, D95E, W90H); 16H7 VH (M34V, H52W, I83T, D109E) (antibody)
VH: B1 VH with H52W
light: B2 light with C1S, F89H, C93S, S94E

Each molecule was assayed against T1, human beta-Klotho (assay: SPR off-rate screening of antibody mutants (human beta-Klotho captured by anti-His antibody)). Conditions: mean, n=3.
Assay type: binding
Description: Screening of antibody mutants for binding to human beta-Klotho was determined in a different SPR assay set up. Human beta-Klotho was affinity captured by an anti-His antibody (from His capture kit, GE Healthcare) that was immobilized to a series S CM5 chip (GE Healthcare) by amine reactive coupling as described above. The antibody samples were used as analytes at 50 nmol/L concentration. Association time was 240 sec and dissociation time was 300 sec. Chip surfaces were regenerated using the regeneration solution supplied with the His capture kit. The off-rates (kd) were determined using single exponential fitting in the Biacore 8K Evaluation Software version 1.1.1.7442 (GE Healthcare).

koff human KLB | Molecule
invalid fit | B1
no binding | B2
no binding | B3
no binding | B4
no binding | B5
no binding | B6
no binding | B7
no binding | B8
no binding | B9
invalid fit | B10
no binding | B11
no binding | B12
no binding | B13
no binding | B14
no binding | B15
no binding | B16
no binding | B17
no binding | B18
no binding | B19
no binding | B20
no binding | B21
